Measured values: IntAct's records for PubMed 26320582

Target: tom1_human TOM1 (UniProt O60784)
Sequence (O60784 whole entry): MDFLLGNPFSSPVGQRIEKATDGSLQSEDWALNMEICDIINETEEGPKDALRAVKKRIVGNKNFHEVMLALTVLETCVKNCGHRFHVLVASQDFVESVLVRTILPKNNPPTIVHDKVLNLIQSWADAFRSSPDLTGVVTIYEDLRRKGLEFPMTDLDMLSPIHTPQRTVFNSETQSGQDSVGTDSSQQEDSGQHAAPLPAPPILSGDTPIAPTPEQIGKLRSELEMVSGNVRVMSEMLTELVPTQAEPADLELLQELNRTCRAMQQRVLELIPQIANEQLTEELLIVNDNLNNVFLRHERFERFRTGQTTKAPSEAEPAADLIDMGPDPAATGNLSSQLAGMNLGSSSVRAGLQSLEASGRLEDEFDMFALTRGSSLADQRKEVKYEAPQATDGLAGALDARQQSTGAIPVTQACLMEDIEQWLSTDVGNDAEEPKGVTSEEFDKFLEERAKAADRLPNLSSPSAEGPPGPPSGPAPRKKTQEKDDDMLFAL

effect of a mutation on the interaction	Substance
decreasing interaction strength	Toll-interacting protein (Homo sapiens) (from UniProt Q9H0E2-1) R9A;V12A
decreasing interaction strength	Toll-interacting protein (Homo sapiens) (from UniProt Q9H0E2-1) F21A
decreasing interaction strength	Toll-interacting protein (Homo sapiens) (from UniProt Q9H0E2-1) D20A;R23A
